What all share (assay): co-IP
The target in assay [1] is Syntaxin13 (Stx13), endogenous in HEK cells (human (endogenous in HEK293T)) (UniProt Q86Y82).
In another assay the target is GFP-tagged GRIP1 (UniProt P97879).
The target in a further assay is GFP-tagged Rab4 (UniProt P20338).

The values that follow come from paper PMC5382714.

UniProt Q86Y82, sequence (Q86Y82 whole entry): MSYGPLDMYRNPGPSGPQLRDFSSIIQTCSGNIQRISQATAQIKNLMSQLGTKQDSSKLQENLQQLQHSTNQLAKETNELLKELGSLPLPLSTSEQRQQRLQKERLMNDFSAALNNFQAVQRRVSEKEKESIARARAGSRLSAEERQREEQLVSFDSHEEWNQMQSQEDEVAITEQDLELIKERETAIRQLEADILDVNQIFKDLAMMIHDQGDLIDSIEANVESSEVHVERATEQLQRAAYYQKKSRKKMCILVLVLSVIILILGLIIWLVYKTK
UniProt P97879, sequence (P97879 whole entry): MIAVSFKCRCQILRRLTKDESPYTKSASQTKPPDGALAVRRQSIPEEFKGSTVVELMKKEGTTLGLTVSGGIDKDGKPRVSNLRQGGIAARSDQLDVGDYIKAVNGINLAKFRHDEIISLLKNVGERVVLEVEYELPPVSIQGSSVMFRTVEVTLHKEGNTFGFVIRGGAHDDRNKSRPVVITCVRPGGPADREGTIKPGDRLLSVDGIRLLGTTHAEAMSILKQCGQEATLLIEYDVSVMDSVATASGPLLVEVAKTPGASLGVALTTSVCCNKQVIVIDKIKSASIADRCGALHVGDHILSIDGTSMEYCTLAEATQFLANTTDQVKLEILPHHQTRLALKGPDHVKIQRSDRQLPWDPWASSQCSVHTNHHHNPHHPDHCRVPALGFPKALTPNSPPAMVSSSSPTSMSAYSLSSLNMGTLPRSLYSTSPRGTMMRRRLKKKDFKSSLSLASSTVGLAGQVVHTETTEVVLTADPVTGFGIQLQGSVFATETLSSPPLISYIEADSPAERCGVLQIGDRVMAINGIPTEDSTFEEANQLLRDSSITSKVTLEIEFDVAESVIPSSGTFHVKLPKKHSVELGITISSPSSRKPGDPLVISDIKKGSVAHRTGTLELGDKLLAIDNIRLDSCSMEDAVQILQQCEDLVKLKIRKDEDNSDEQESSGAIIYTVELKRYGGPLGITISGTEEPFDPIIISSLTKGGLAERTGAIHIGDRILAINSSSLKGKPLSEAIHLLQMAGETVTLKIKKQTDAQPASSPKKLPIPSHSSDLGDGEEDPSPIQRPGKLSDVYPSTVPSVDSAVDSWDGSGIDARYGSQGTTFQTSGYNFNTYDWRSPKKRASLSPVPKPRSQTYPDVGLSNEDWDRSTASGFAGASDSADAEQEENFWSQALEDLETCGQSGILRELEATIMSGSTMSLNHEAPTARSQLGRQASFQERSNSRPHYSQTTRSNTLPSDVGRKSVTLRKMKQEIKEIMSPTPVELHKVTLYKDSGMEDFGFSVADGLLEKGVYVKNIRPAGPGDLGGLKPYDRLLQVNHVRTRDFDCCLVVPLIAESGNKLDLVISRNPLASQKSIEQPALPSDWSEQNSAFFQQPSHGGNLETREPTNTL
UniProt P20338, sequence (P20338 whole entry): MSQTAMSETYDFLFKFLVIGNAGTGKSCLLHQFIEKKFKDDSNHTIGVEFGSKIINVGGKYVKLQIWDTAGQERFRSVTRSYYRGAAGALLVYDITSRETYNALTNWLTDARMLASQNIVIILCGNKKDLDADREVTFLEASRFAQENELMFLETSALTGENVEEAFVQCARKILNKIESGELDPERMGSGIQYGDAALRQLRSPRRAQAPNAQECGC

Consider “GRASP1 R822Q (intellectual disability mutant) (from UniProt Q8VD04 1-806) (natural protein)”, for which the GRASP1 co-precipitated with Stx13, % WT in assay [1] came out at 83.2 % WT. Also, in the assay with GFP-tagged GRIP1, the GRASP1 co-precipitated with GRIP1, % WT was 43.7 % WT. In the assay with GFP-tagged Rab4, the GRASP1 co-precipitated with Rab4, % WT stood at 105 % WT.

“GRASP1 GBD deletion mutant (dGBD) (from UniProt Q8VD04 1-806) (natural protein)”: the GRASP1 co-precipitated with Stx13, % WT in assay [1] turned out to be 62.7 % WT. In the assay with GFP-tagged GRIP1, this substance came in with a GRASP1 co-precipitated with GRIP1, % WT of 42.6 % WT. In the assay with GFP-tagged Rab4, this substance yielded a GRASP1 co-precipitated with Rab4, % WT of 34.8 % WT.

The substance “GRASP1 S73N (intellectual disability mutant) (from UniProt Q8VD04 1-806) (natural protein)” registered a GRASP1 co-precipitated with Stx13, % WT in assay [1] of 553 % WT. For the same substance, the GRASP1 co-precipitated with GRIP1, % WT in the assay with GFP-tagged GRIP1 stood at 206 % WT. In the assay with GFP-tagged Rab4, the GRASP1 co-precipitated with Rab4, % WT came out at 98.2 % WT.
